{
  "source": "patent US20230257479A1",
  "about": "(Genmab, published 2023)",
  "binders": {"B1": {"name": "IgG1-5T4-207-FEAR (antibody, V domains shown)", "VH": "QVQLQQWGAGLLKPSETLSLTCAVYGGSFSGYYWTWIRQPPGKGLEWIGEIDHSESTNYNPSLKSRVTISVDTSKNQFSLKLSSVTAADTAVYYCAGWFGELYHYYYGMDVWGQGTTVTVSS", "VL": "EIVLTQSPATLSLSPGERATLSCRASQSVSSYLAWYQQKPGQAPRLLIYDASNRATGIPARFSGSGSGTDFTLTISSLEPEDFAVYYCQQRSNWPLTFGGGTKVEIKR", "notes": "Monospecific, bivalent IgG1 FEAR"}, "B2": {"name": "IgG1-5T4-226-FEAR (antibody, V domains shown)", "VH": "B1 VH with T35S, E55G, G97A, Y103W, H104D", "VL": "EIVLTQSPATLSLSPGERATLSCRASQSVSSFLAWYQQKPGQAPRLLIYDASNRATGIPARFSGSGSGTDFTLTISSLEPEDFAVYYCQQRSNWPLTFGQGTRLEIK", "notes": "Monospecific, bivalent human IgG1 kappa with L234F, L235E, D265A, K409R (FEAR); also called IgG1-5T4-226-FEAR-FITC"}},
  "key": {"[1]": {"molecular_target": "T1, human 5T4ECDHis (mature protein of SEQ ID NO: 99) (human, UniProt Q13641 32-355)", "T1 construct": "ECD of human 5T4 (aa 1-355 of Uniprot Q13641) with C-terminal His tag; residues 1-31 are the signal peptide; also called ECD of human 5T4 with a C-terminal His tag", "T1 sequence": "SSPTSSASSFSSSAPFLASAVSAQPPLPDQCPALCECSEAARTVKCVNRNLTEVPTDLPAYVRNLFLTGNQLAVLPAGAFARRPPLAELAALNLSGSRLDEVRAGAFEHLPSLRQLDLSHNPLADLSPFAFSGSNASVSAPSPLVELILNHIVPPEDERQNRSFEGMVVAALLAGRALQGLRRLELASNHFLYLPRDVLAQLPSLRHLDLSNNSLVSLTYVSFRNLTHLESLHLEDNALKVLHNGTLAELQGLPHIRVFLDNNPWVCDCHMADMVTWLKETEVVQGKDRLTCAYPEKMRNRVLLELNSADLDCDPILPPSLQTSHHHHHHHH", "assay": "BLI cross-block; competitor (immobilised): IgG1-5T4-059-FEAR"}, "[2]": {"molecular_target": "T1, human 5T4ECDHis (mature protein of SEQ …)", "assay": "BLI cross-block; competitor (immobilised): IgG1-5T4-085-FEAR"}, "[3]": {"molecular_target": "T1, human 5T4ECDHis (mature protein of SEQ …)", "assay": "BLI cross-block; competitor (immobilised): IgG1-5T4-127-FEAR"}, "[4]": {"molecular_target": "T1, human 5T4ECDHis (mature protein of SEQ …)", "assay": "BLI cross-block; competitor (immobilised): IgG1-5T4-106-FEAR"}, "[5]": {"molecular_target": "T1, human 5T4ECDHis (mature protein of SEQ …)", "assay": "BLI cross-block; competitor (immobilised): IgG1-5T4-076-FEAR"}, "[6]": {"molecular_target": "T1, human 5T4ECDHis (mature protein of SEQ …)", "assay": "BLI cross-block; competitor (immobilised): IgG1-5T4-207-FEAR"}, "[7]": {"molecular_target": "T2, full length chicken 5T4 (SEQ ID NO: 3) on transfected HEK-293 cells (chicken)", "T2 construct": "Uniprot R4GM46; residues 1-27 are the signal peptide", "T2 chain": "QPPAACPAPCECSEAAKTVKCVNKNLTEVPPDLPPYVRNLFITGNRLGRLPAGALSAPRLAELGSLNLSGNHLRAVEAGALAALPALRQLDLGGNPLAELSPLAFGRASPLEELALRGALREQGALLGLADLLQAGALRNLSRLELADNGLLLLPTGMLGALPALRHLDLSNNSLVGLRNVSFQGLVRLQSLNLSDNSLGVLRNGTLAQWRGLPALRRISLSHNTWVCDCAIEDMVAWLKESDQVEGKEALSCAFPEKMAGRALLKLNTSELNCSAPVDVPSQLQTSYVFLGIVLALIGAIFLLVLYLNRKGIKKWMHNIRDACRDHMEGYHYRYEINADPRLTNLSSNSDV", "assay": "flow cytometry, HEK-293 cells transfected with chicken 5T4, PE secondary"}, "[8]": {"molecular_target": "T1, human 5T4ECDHis (mature protein of SEQ …)", "assay": "BLI, antibody on anti-human IgG Fc Capture biosensor, antigen in solution"}, "[9]": {"molecular_target": "T1, human 5T4ECDHis (mature protein of SEQ …)", "assay": "BLI cross-block; competitor (immobilised): IgG1-5T4-H8-FEAR"}, "[10]": {"molecular_target": "T1, human 5T4ECDHis (mature protein of SEQ …)", "assay": "BLI cross-block; competitor (immobilised): IgG1-5T4-A1-F405L"}, "[11]": {"molecular_target": "T1, human 5T4ECDHis (mature protein of SEQ …)", "assay": "BLI cross-block; competitor (immobilised): IgG1-5T4-226-FEAR"}, "[12]": {"molecular_target": "T3, recombinant cynomolgus monkey 5T4 protein (Cusabio; cat. no. CSB-MP024093MOV) (cynomolgus monkey, UniProt Q4R8Y9 35-355)", "T3 construct": "extracellular domain; Bought protein; also called cynomolgus 5T4; cynomolgus monkey 5T4 extracellular domain", "T3 sequence (looked up)": "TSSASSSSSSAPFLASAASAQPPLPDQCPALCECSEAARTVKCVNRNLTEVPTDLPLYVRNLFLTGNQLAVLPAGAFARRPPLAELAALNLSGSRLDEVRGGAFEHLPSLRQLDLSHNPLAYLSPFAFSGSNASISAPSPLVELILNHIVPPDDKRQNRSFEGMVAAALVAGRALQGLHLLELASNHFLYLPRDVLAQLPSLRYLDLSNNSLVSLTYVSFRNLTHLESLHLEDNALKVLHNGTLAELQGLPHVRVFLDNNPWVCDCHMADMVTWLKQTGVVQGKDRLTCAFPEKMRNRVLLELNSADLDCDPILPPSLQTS", "assay": "BLI, antibody on anti-human IgG Fc Capture biosensor, antigen in solution"}, "[13]": {"molecular_target": "T4, full length human 5T4 (SEQ ID NO: 1) on cells (human, UniProt Q13641 32-420)", "T4 construct": "Uniprot Q13641; residues 1-31 are the signal peptide; Used both for transfected HEK-293 cells and for 5T4-expressing human tumor cell lines", "T4 sequence": "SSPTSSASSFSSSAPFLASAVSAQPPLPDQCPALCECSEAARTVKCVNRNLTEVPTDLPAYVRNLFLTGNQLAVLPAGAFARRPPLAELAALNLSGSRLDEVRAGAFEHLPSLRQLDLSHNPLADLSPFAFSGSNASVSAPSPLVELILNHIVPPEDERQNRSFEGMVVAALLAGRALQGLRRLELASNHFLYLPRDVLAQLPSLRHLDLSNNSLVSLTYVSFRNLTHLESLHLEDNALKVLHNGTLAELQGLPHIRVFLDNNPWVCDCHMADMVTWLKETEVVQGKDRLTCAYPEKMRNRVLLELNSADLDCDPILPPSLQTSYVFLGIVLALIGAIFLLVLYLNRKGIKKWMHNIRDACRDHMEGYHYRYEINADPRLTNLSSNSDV", "assay": "flow cytometry, MDA-MB-231 cells, FITC secondary [I)C]"}},
  "note": "Substitutions are numbered along the chain they refer to. In names and notes the source's numbering stands.",
  "data": [
    {"binder": "B1", "values": [
      {"measurement": "corrected association response", "setting": "[1]", "value": 0.02, "unit": "nm"},
      {"measurement": "corrected association response", "setting": "[2]", "value": 0.08, "unit": "nm"},
      {"measurement": "corrected association response", "setting": "[3]", "value": 0.16, "unit": "nm"},
      {"measurement": "corrected association response", "setting": "[4]", "value": -0.03, "unit": "nm"},
      {"measurement": "corrected association response", "setting": "[5]", "value": 0.05, "unit": "nm"},
      {"measurement": "corrected association response", "setting": "[6]", "value": -0.02, "unit": "nm"},
      {"measurement": "binding result", "setting": "[7]", "value": "binds"},
      {"measurement": "Kd", "setting": "[8]", "value": 2.6, "unit": "nM"},
      {"measurement": "koff", "setting": "[8]", "value": 0.00068, "unit": "s⁻¹"},
      {"measurement": "kon", "setting": "[8]", "value": 270000, "unit": "M⁻¹ s⁻¹"},
      {"measurement": "corrected association response", "setting": "[9]", "value": -0.01, "unit": "nm"},
      {"measurement": "corrected association response", "setting": "[10]", "value": 0.86, "unit": "nm"},
      {"measurement": "corrected association response", "setting": "[11]", "value": -0.02, "unit": "nm"},
      {"measurement": "Kd", "setting": "[12]", "value": 6.3, "unit": "nM"},
      {"measurement": "koff", "setting": "[12]", "value": 0.00087, "unit": "s⁻¹"},
      {"measurement": "kon", "setting": "[12]", "value": 140000, "unit": "M⁻¹ s⁻¹"}
    ]},
    {"binder": "B2", "values": [
      {"measurement": "corrected association response", "setting": "[1]", "value": 0.01, "unit": "nm"},
      {"measurement": "corrected association response", "setting": "[2]", "value": 0.07, "unit": "nm"},
      {"measurement": "corrected association response", "setting": "[3]", "value": 0.16, "unit": "nm"},
      {"measurement": "corrected association response", "setting": "[4]", "value": -0.02, "unit": "nm"},
      {"measurement": "corrected association response", "setting": "[5]", "value": 0.05, "unit": "nm"},
      {"measurement": "corrected association response", "setting": "[6]", "value": -0.02, "unit": "nm"},
      {"measurement": "binding result", "setting": "[7]", "value": "binds"},
      {"measurement": "EC50 (read off the curve)", "setting": "[13]", "value": "~0.04", "unit": "µg/mL"},
      {"measurement": "Kd", "setting": "[8]", "value": 2.5, "unit": "nM"},
      {"measurement": "koff", "setting": "[8]", "value": 0.00081, "unit": "s⁻¹"},
      {"measurement": "kon", "setting": "[8]", "value": 330000, "unit": "M⁻¹ s⁻¹"},
      {"measurement": "corrected association response", "setting": "[9]", "value": -0.01, "unit": "nm"},
      {"measurement": "corrected association response", "setting": "[10]", "value": 0.86, "unit": "nm"},
      {"measurement": "corrected association response", "setting": "[11]", "value": -0.02, "unit": "nm"},
      {"measurement": "Kd", "setting": "[12]", "value": 11, "unit": "nM"},
      {"measurement": "koff", "setting": "[12]", "value": 0.0015, "unit": "s⁻¹"},
      {"measurement": "kon", "setting": "[12]", "value": 140000, "unit": "M⁻¹ s⁻¹"}
    ]}
  ]
}
